Results: PMC5358875 (Journal of the American Chemical Society, 2017)
Bridge positions count the residues as written; N and C are the ends. Square brackets hold non-standard residues; d marks the D form. Ends that are not written are not given here. Peptide text beside a SMILES is read from it. I, II: the chains in the order shown. * marks the point of attachment. 5‑TAMRA = CN(C)c1ccc2c(-c3ccc(C(=O)*)cc3C(=O)[O-])c3ccc(N(C)C)cc3[o+]c2c1; Lys(N3) = [N-]=[N+]=NCCCC[C@H](N)C(=O)O; Aha = [N-]=[N+]=NCC[C@H](N)C(=O)O; m3c = not defined here; m3 = not defined here; Ahx = NCCCCCC(=O)O

B1: TNKS2 ARC4 (488–649) (domain or fragment, human, UniProt Q9H2K2 488-649, looked up)
chain: GNSEADRQLLEAAKAGDVETVKKLCTVQSVNCRDIEGRQSTPLHFAAGYNRVSVVEYLLQHGADVHAKDKGGLVPLHNACSYGHYEVAELLVKHGAVVNVADLWKFTPLHEAAAKGKYEICKLLLQHGADPTKKNRDGNTPLDLVKDGDTDIQDLLRGDAAL

Legend:
TNKS2 ARC4 = biological target: T1, TNKS2 ARC4 (Homo sapiens, UniProt Q9H2K2); assay: Competitive fluorescence polarization, TNKS2 ARC4; type: binding; details: unlabeled peptides; tracer T-pep1 bound to ARC4; read-out: Kd TNKS2 ARC4 (Competition FP)
T1 construct: GST (cleaved yes); made in house; host or cells: E. coli C41(DE3)
T1 sequence (Q9H2K2 488-649): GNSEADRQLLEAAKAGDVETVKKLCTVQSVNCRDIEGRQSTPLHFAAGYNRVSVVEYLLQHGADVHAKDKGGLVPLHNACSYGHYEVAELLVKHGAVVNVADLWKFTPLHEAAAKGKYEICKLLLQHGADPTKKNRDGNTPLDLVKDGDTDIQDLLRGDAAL
Method: Fluorescence polarization (FP) assays were performed in 96-well half area black microplates (Corning) on a CLARIOstar microplate reader (BMG labtech) using excitation filter 540–20 nm, dichroic mirror LP 566 nm, and emission filter 590–20 nm. All peptides were dissolved in water as stock solutions. For direct FP assays, the stock concentrations of the TAMRA-labeled peptides were determined based on the 5-TAMRA absorbance at 556 nm (extinction coefficient ε = 89,000 M^–1 cm^–1) measured on a NanoDrop 2000 (Thermo Scientific) and verified by amino acid analysis (Department of Biochemistry, University of Cambridge). […] Data were analyzed on GraphPad Prism 5.0, and the dissociation constant, Kd, was determined using the following equation assuming the ratio between the concentration of the bound and that of the total TAMRA-labeled peptide is proportional to the fluorescence polarization [drawing 1] where FP is the fluorescence polarization, B is the minimum FP, T is the maximum FP, L0 is the total concentration of TAMRA-labeled peptide, P0 is the total concentration of protein, and Kd is the dissociation constant.
For the competition FP assays, the stock concentrations of the unlabeled macrocyclized peptides or the Axin1 fragments were determined by amino acid analysis. […]

human Axin1_1–80 = human Axin1_1–80 (human, UniProt O15169 1-80); assay: ITC; TNKS2 ARC4 (160–280 μM) or TNKS1 ARC2–3 (60–150 μM) titrated into the cell holding peptide (5–15 μM) or Axin1 fragment (8–12 μM); PBS, 0.5 mM TCEP; 25 °C; one-site model; details: both partners purified
T-cp4n2m3c = assay: fluorescence polarisation; direct FP; TAMRA-labeled peptide (20 nM, 50 μL) mixed with serially diluted TNKS2 ARC4 (40–0 μM, 50 μL); 50 mM HEPES pH 7.5, 300 mM NaCl, 2 mM DTT, 0.05% Tween 20; 30 min at 25 °C
[1] = biological target: T2, human tankyrase 2 ankyrin repeat cluster 4 (TNKS2 ARC4, residues 488-649) (human, UniProt Q9H2K2 488-649); assay: fluorescence polarisation; direct: TNKS2 ARC4 or TNKS1 ARC2-3 diluted 2-fold serially (40-0 uM, 50 uL) and mixed with TAMRA-labeled peptide (20 nM, 50 uL); 50 mM HEPES pH 7.5, 300 mM NaCl, 2 mM DTT, 0.05% Tween 20; 30 min, 25 C; details: both partners purified
T2 sequence (looked up): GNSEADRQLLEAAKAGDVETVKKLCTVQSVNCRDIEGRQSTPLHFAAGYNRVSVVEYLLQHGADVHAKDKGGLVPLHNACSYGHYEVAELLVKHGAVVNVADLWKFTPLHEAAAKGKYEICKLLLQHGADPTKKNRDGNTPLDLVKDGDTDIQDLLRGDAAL

TNKS2 ARC4 (488–649) [2] = biological target: B1; assay: fluorescence polarisation; direct FP; TAMRA-labeled peptide (20 nM, 50 μL) mixed with serially diluted TNKS2 ARC4 (40–0 μM, 50 μL); 50 mM HEPES pH 7.5, 300 mM NaCl, 2 mM DTT, 0.05% Tween 20; 30 min at 25 °C; details: both partners purified
TNKS2 ARC4 (488–649) [3] = biological target: B1; assay: pull-down; GST-Axin1 1–80 on glutathione beads incubated with TNKS2 ARC4 (89 μM), washed, then incubated 0.5 h at room temperature with unlabeled peptide (0–200 μM); wash buffer 50 mM Tris·HCl pH 8.0, 500 mM NaCl, 2 mM DTT; SDS-PAGE, Coomassie, densitometry; details: both partners purified
TNKS2 ARC4 (488–649) [4] = biological target: B1; assay: fluorescence polarisation; competitive FP; T-pep1 (20 nM) with TNKS2 ARC4 (3 μM) as tracer, unlabeled peptide serially diluted; PBS, 0.05% Tween 20; 30 min at 25 °C; details: both partners purified
[5] = biological target: T3, human tankyrase 1 ankyrin repeat clusters 2-3 (TNKS1 ARC2-3, residues 315-662) (human, UniProt O95271 315-662); assay: fluorescence polarisation; competition: Axin1 fragment diluted 2-fold serially against TAMRA-labeled pep1 (20 nM) with TNKS1 ARC2-3 (1.2 uM); PBS, 0.05% Tween 20; 30 min, 25 C; details: both partners purified
T3 sequence (looked up): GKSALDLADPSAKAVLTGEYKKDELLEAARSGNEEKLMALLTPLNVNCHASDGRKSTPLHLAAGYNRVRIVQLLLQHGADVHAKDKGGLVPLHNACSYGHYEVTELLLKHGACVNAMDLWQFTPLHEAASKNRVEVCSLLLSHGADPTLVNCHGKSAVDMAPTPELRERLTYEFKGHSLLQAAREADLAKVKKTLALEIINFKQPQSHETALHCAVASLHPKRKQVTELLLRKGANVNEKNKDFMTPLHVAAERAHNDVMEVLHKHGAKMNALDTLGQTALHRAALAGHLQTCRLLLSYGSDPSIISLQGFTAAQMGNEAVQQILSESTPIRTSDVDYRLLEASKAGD

[6] = biological target: T2, human tankyrase 2 ankyrin repeat …; assay: fluorescence polarisation; competition: unlabeled peptide or Axin1 fragment diluted 2-fold serially against TAMRA-labeled pep1 (20 nM) with TNKS2 ARC4 (3 uM); PBS, 0.05% Tween 20; 30 min, 25 C; details: both partners purified
[7] = biological target: T3, human tankyrase 1 ankyrin repeat …; assay: ITC; TNKS2 ARC4 (160-280 uM) or TNKS1 ARC2-3 (60-150 uM) titrated into the cell with unlabeled peptide (5-15 uM) or Axin1 fragment (8-12 uM); PBS, 0.5 mM TCEP; 25 C; one-site model; stoichiometry = TNKS per peptide or Axin1; details: both partners purified
[8] = biological target: T2, human tankyrase 2 ankyrin repeat …; assay: as above; details: both partners purified
[9] = biological target: T3, human tankyrase 1 ankyrin repeat …; assay: fluorescence polarisation; direct: TNKS2 ARC4 or TNKS1 ARC2-3 diluted 2-fold serially (40-0 uM, 50 uL) and mixed with TAMRA-labeled peptide (20 nM, 50 uL); 50 mM HEPES pH 7.5, 300 mM NaCl, 2 mM DTT, 0.05% Tween 20; 30 min, 25 C; details: both partners purified
[10] = biological target: T2, human tankyrase 2 ankyrin repeat …; assay: as above; details: both partners purified; remark: listed apart in the source

## CC(=O)N[C@@H](CCCNC(=N)N)C(=O)N[C@@H](CCC(=O)O)C(=O)N[C@@H](CCCCN=[N+]=[N-])C(=O)NCC(=O)N[C@@H](CC(=O)O)C(=O)NCC(=O)N[C@@H](CCCCN=[N+]=[N-])C(=O)N[C@@H](CCC(=O)O)C(N)=O [cp4n4] (Ac-RE[Lys(N3)]GDG[Lys(N3)]E-NH2)
TNKS2 ARC4
  Kd: 1400 ± 100 nM

## CC(=O)N[C@@H](CCCNC(=N)N)C(=O)N[C@@H](CCC(=O)O)C(=O)N[C@@H](CCCCN=[N+]=[N-])C(=O)NCC(=O)N[C@@H](CC(=O)O)C(=O)NCC(=O)N[C@@H](CCC(=O)O)C(=O)N[C@@H](CCCCN=[N+]=[N-])C(N)=O [cp5n4] (Ac-RE[Lys(N3)]GDGE[Lys(N3)]-NH2)
TNKS2 ARC4
  Kd: 2600 ± 100 nM

## B1
Human Axin1_1–80
  stoichiometry N: 1
T-cp4n2m3c
  fold higher affinity than T-pep1: 2 fold

B2: T-cp4n2m3c-Antp (peptide)
chain 1: REXGDGXE
chain 2: RQIKIWFQNRRMKWKK
modifications: 5-TAMRA-Ahx on the N-terminus; X3 and X7 (n2, 2 CH2): azido unnatural amino acids cross-linked through two triazoles by linker m3c, which carries the second chain | two Ahx spacers between the m3c linker and the N-terminus
[1]
  Kd: 490 ± 20 nM

B3: T-pep1 (TAMRA-Ahx-REAGDGEE) (peptide)
peptide: {5‑TAMRA-Ahx}-REAGDGEE
TNKS2 ARC4 (488–649) [2]
  Kd: 800 ± 100 nM

B4: pep1 (peptide)
peptide: Ac-REAGDGEE
TNKS2 ARC4 (488–649) [3]
  IC50: ~40000 nM
TNKS2 ARC4 (488–649) [4]
  Kd: 1200 ± 100 nM

B5: human Axin1 residues 1-43 (domain or fragment, UniProt O15169 1-43, looked up)
chain: MNIQEQGFPLDLGASFTEDAPRPPVPGEEGELVSTDPRPASYS
[5]
  Kd: 560 ± 40 nM
[6]
  Kd: 3680 ± 180 nM
[7]
  Kd: 830 ± 80 nM
  stoichiometry N: 1 ± 0.01
[8]
  Kd: 2120 ± 160 nM
  stoichiometry N: 1 ± 0.02

B6: T-cp4n2m3c-R6 (peptide)
chain 1: {5‑TAMRA-Ahx}-RE[Aha]GDG[Aha]E
chain 2: RRRRRR
modifications: triazole I:3-I:7 via m3c; not fully specified (N-terminus); reading uncertain; also: chain 2 N-terminus conjugated to m3c linker of chain 1
[1]
  Kd: 950 ± 20 nM

B7: cp4n2m3 (peptide)
chain: Ac-RE[Aha]GDG[Aha]E
modifications: triazole 3-7 via m3; reading uncertain
TNKS2 ARC4 (488–649) [3]
  IC50: ~20000 nM

B8: TNKS1 ARC2–3 (315–662) (domain or fragment, human, UniProt O95271 315-662, looked up)
chain: GKSALDLADPSAKAVLTGEYKKDELLEAARSGNEEKLMALLTPLNVNCHASDGRKSTPLHLAAGYNRVRIVQLLLQHGADVHAKDKGGLVPLHNACSYGHYEVTELLLKHGACVNAMDLWQFTPLHEAASKNRVEVCSLLLSHGADPTLVNCHGKSAVDMAPTPELRERLTYEFKGHSLLQAAREADLAKVKKTLALEIINFKQPQSHETALHCAVASLHPKRKQVTELLLRKGANVNEKNKDFMTPLHVAAERAHNDVMEVLHKHGAKMNALDTLGQTALHRAALAGHLQTCRLLLSYGSDPSIISLQGFTAAQMGNEAVQQILSESTPIRTSDVDYRLLEASKAGD
Human Axin1_1–80
  stoichiometry N: 2

B9: T-pep1 (TAMRA-Ahx-REAGDGEE) (peptide)
peptide: {5‑TAMRA-Ahx}-REAGDGEE
[9]
  Kd: 190 ± 4 nM
[10]
  Kd: 780 ± 60 nM
